Assay results: US20030130166A1, “Polynucleotide encoding a human junctional adhesion protein (JAM2)” (priority 1999, published 2003)
Bridges are numbered along the chain shown (N, C = ends). Where no end group is shown, it is not given here.

B3: JAM2-Fc (extracellular domain of human JAM2 fused to the constant region of mouse IgG-2a, secreted from Sf21 insect cells) (Fc fusion)
chain: FSAPKDQQVVTAVEYQEAILACKTPKKTVSSRLEWKKLGRSVSFVYYQQTLQGDFKNRAEMIDFNIRIKNVTRSDAGKYRCEVSAPSEQGQNLEEDTVTLEVLVAPAVPSCEVPSSALSGTVVELRCQDKEGNPAPEYTWFKDGIRLLENPRLGSQSTNSSYTMNTKTGTLQFNTVSKLDTGEYSCEARNSVGYRRCPGKRMQVDDLNIS
notes: In the assays it was captured on 96 well plates by goat anti-mouse IgG2a; also called recombinant JAM2; JAM2 extracellular domain; not shown: constant region of mouse IgG-2a (mIgG2a) from the modified pFastBac1 vector

What was measured:
[1] = target: T1, human JAM3 (Junctional Adhesion Molecule 3), endogenous on HSB T cells (human, UniProt Q9BX67 32-310); assay: adhesion of calcein-loaded HSB cells to Fc fusion protein
T1 construct: whole, on cells; also called cell surface JAM3; 43 kDa protein
T1 sequence (looked up): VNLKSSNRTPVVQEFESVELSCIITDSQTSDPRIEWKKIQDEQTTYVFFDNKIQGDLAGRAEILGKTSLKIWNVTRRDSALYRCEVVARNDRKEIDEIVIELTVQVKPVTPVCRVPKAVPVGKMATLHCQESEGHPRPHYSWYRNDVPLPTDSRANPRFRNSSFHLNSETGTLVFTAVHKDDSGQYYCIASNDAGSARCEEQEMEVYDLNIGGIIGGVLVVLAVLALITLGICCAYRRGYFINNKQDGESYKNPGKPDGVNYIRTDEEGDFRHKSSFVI

HSB cells = assay: In vitro adhesion assay, calcein loaded cells on captured Fc fusion protein; assay type: cell-based
Protocol: (§1) Biol. 52:85 (1992), herein incorporated by reference.
(§2) The capacity of JAM2 extracellular domain to adhere to various leukocyte cell lines according to a previously established in vitro binding assay performed under static conditions was next examined (see Todderud, G., J. Leukoc, Biol. 52:85(1992)). Calcein loaded cells were allowed to interact with JAM2-Fc captured in 96 well plates in binding buffer (hereinafter “BB”) which contained TBS plus 1 mM calcium, magnesium and manganese. Non-specific binding of cells to captured mIgG2a was determined simultaneously and subtracted. […] Binding to the erythroleukemic K562 cell lines was non-existent.

[2] = target: T1, human JAM3 (Junctional Adhesion …); assay: adhesion of calcein-loaded HSB cells to captured JAM2-Fc in TBS+Ca/Mg/Mn (FIG. 7)
Protocol: In vitro adhesion assays were performed in 96 well plates essentially as described in Todderud, G., J. J. Leukoc. Biol. 52:85 (1992), herein incorporated by reference. Briefly, 50 μl of goat anti-mouse IgG2a was coated at 5 μg/ml in PBS and used to capture 4.8 pmoles of JAM2-Fc or mIgG2a (control). Various leukocyte cell lines i.e. T lymphocytes, HSB, HPB-ALL; B lymphocytes, RAMOS; monocytic cells, HL60, THP-1, and the erythroleukemic, K562 lines were labeled with calcein (Molecular Probes Inc., Eugene, Oreg.) at 50 μg/ml for 25 minutes at 37° C. with 250,000 cells/well in binding buffer that consisted of Tris buffered saline plus 1 mM each of CaCl₂, MgCl₂ and MnCl₂. Wells were washed 3×, lysed with 50 mM Tris (pH 7.5), 5 mM EDTA, 1% NP40, and fluorescence read in a Cytofluor with excitation at 485/20 nm and emission at 530/25 nm. Specific binding was calculated as fluorescence with JAM2-Fc minus fluorescence with mIgG2a. For antibody inhibition, protein captured on wells or HSB cells were incubated for 30 min at RT in binding buffer with 1:100×dilution of preimmune (normal mouse serum) or anti-JAM2 mouse polyclonal serum. […] Overall differences among experimental groups for each parameter were first assessed by one-way analysis of variance (ANOVA) and individual pairwise group comparisons were analyzed by Fisher's protected least significance difference (PLSD) post hoc test. […]

HPB-ALL = assay: In vitro adhesion assay, calcein loaded cells on captured Fc fusion protein; assay type: cell-based; conditions: binding buffer: TBS plus 1 mM calcium, magnesium and manganese; FIG. 7
Protocol: as §1, §2

K562 cell lines = assay: as above; assay type: cell-based; conditions: binding buffer: TBS plus 1 mM calcium, magnesium and manganese; FIG. 7
Protocol: as §1, §2

[3] = target: B3; assay: the inventors' reading of the inhibition of HSB adhesion to captured JAM2-Fc by soluble JAM3 (FIG. 13A)
Protocol: (§3) JAM2-Fc adhesion to T cell lines was performed by capture of fusion protein by goat anti-mouse coated 96 well plates as described in Cunningham et al., J. Biol. Chem., 275:34750-34756 (2000). The HSB cells were loaded with calcien-AM (Molecular Probes Inc., Eugene Oreg.) and re-suspended in Tris Buffered Saline (TBS) with or without the addition of 1 mM MnCl₂. Binding to mouse IgG2a was used to subtract background. Soluble JAM3 was generated from a JAM3-Fc fusion that was digested with thrombin and purified to remove the Fc component. Neutralizing anti-JAM3 polyclonal serum was generated in mice using human JAM3 extracellular domain as immunogen. […] Following adhesion for 90 minutes at 37° C., wells were washed 3 times at room temperature. Adhered cells were lyzed and fluorescence quantified in a Cytofluor with excitation at 485/20 nm and emission at 530/25.
The inventors believe that soluble JAM3 ectodomain would bind to the JAM2 on the well surface and prevent its interaction with JAM3 on the HSB cell surface. It is concluded that under these conditions, that JAM2 is unable to engage α4 integrin. Therefore, a specific interaction of JAM2 with cell-surface bound JAM3 is necessary before JAM2 can bind α4 integrin. Likewise, if neutralizing anti-JAM3 antibodies are used to prevent JAM2 binding to cell surface JAM3, then JAM2 is also unable to engage integrin (FIG. 13B).

[4] = target: T2, α4β1 integrin, endogenous on HSB T cells (UniProt P13612 34-1032; P05556 21-798, limits assumed); assay: inhibition of Mn-enhanced adhesion of calcein-loaded HSB cells to captured JAM2-Fc (FIG. 12B)
T2 construct: whole, on cells; also called α4 integrin; alpha 4 integrin
T2 sequence (P13612 34-1032 limits assumed, chain 1 of 2): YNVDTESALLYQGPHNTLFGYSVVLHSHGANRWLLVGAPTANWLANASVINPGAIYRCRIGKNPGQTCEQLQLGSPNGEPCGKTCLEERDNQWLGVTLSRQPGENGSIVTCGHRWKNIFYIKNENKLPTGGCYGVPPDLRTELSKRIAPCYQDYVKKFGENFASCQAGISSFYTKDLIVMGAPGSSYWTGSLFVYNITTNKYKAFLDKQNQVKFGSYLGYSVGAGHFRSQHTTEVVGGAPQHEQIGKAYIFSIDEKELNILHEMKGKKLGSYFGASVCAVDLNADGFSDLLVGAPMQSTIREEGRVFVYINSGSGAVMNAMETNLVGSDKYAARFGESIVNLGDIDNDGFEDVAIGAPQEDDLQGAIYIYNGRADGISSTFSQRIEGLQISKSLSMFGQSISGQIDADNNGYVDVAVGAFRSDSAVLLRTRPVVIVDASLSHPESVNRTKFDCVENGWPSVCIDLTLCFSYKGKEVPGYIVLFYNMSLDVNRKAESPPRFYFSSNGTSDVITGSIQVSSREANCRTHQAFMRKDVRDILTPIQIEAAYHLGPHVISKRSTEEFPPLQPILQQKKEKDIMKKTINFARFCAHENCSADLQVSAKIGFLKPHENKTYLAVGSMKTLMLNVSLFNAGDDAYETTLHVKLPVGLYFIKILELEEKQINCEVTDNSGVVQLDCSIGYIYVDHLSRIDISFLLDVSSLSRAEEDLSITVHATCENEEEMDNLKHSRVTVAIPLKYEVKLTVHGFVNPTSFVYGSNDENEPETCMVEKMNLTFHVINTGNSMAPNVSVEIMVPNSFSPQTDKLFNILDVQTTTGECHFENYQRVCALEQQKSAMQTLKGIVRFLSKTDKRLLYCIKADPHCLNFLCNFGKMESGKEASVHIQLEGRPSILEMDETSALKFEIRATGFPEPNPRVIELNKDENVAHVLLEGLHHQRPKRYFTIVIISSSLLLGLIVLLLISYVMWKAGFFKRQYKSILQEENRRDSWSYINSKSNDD
T2 sequence (P05556 21-798 limits assumed, chain 2 of 2): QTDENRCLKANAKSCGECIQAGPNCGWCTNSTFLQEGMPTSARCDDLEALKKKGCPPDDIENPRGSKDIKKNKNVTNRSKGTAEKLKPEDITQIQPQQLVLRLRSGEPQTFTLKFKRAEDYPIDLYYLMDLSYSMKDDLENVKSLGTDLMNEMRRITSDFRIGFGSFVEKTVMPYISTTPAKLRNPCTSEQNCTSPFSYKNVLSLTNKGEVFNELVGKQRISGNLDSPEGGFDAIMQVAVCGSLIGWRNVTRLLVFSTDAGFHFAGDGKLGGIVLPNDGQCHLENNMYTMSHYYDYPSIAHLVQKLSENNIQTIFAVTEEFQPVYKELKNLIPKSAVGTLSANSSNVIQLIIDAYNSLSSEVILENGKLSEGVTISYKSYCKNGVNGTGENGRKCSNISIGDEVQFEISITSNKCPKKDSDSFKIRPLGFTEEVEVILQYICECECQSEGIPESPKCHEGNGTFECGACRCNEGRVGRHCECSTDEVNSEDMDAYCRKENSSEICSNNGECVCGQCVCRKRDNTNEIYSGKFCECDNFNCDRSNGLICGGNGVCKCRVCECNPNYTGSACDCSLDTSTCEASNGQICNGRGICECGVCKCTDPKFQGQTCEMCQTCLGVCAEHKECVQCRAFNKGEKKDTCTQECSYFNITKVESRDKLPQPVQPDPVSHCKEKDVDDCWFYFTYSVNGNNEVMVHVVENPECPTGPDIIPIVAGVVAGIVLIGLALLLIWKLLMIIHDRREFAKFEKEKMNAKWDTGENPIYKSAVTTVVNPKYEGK
Protocol: as §3

B1: human JAM1-Fc (Fc fusion, UniProt Q9Y624 28-238, looked up)
chain: SVTVHSSEPEVRIPENNPVKLSCAYSGFSSPRVEWKFDQGDTTRLVCYNNKITASYEDRVTFLPTGITFKSVTREDTGTYTCMVSEEGGNSYGEVKVKLIVLVPPSKPTVNIPSSATIGNRAVLTCSEQDGSPPSEYTWFKDGIVMPTNPKSTRAFSNSSYVLNPTTGELVFDPLSASDTGEYSCEARNGYGTPMTSNAVRMEAVERNVGV
notes: not shown: Fc part not described for this construct
- binding result [1]: no binding

B2: human JAM1-Fc: Fc fusion of JAM1, the human homologue of mouse JAM (protein)
chain: SVTVHSSEPEVRIPENNPVKLSCAYSGFSSPRVEWKFDQGDTTRLVCYNNKITASYEDRVTFLPTGITFKSVTREDTGTYTCMVSEEGGNSYGEVKVKLIVLVPPSKPTVNIPSSATIGNRAVLTCSEQDGSPPSEYTWFKDGIVMPTNPKSTRAFSNSSYVLNPTTGELVFDPLSASDTGEYSCEARNGYGTPMTSNAVRMEAVERNVGV
modifications: left off: a dimerising Fc or GST
notes: Fc fusion of JAM1, the human homologue of mouse JAM
- binding of calcein loaded HSB cells (HSB cells): unable to bind

Molecule: B3
- binding result [2]: binds

B4: JAM2-Fc: extracellular domain of human JAM2 secreted from Sf21 insect cells as a fusion to mIgG2a (protein)
chain: FSAPKDQQVVTAVEYQEAILACKTPKKTVSSRLEWKKLGRSVSFVYYQQTLQGDFKNRAEMIDFNIRIKNVTRSDAGKYRCEVSAPSEQGQNLEEDTVTLEVLVAPAVPSCEVPSSALSGTVVELRCQDKEGNPAPEYTWFKDGIRLLENPRLGSQSTNSSYTMNTKTGTLQFNTVSKLDTGEYSCEARNSVGYRRCPGKRMQVDDLNIS
modifications: left off: a dimerising Fc or GST
notes: extracellular domain of human JAM2 secreted from Sf21 insect cells as a fusion to mIgG2a
- capture of HSB cells (HSB cells; binding buffer: TBS plus 1 mM calcium, magnesium and manganese, FIG. 7): quite efficiently
- capture of HPB-ALL cells (HPB-ALL): quite efficiently
- binding to K562 cells (K562 cell lines): non-existent

B5: soluble JAM3 (JAM3 ectodomain from a JAM3-Fc fusion digested with thrombin and purified to remove the Fc) (receptor, human, UniProt Q9BX67 32-241, looked up)
chain: VNLKSSNRTPVVQEFESVELSCIITDSQTSDPRIEWKKIQDEQTTYVFFDNKIQGDLAGRAEILGKTSLKIWNVTRRDSALYRCEVVARNDRKEIDEIVIELTVQVKPVTPVCRVPKAVPVGKMATLHCQESEGHPRPHYSWYRNDVPLPTDSRANPRFRNSSFHLNSETGTLVFTAVHKDDSGQYYCIASNDAGSARCEEQEMEVYDLN
notes: extracellular domain; It was added at a 10-fold molar ratio; also called soluble JAM3 ectodomain
- binding result [3]: binds

B6: TBC 772, cyclic hexapeptide (C*WLDVC*), antagonist of alpha 4 integrins (peptide)
peptide: CWLDVC
modifications: bridge 1-6; also: cyclic hexapeptide, bond type between C* residues not given here
- IC50 [4]: ~60 nM

B7: N-terminal Ig-fold of JAM2: first Ig domain of JAM2 synthesized as a secreted protein in insect cells (protein)
chain: FSAPKDQQVVTAVEYQEAILACKTPKKTVSSRLEWKKLGRSVSFVYYQQTLQGDFKNRAEMIDFNIRIKNVTRSDAGKYRCEVSAPSEQGQNLEEDTVTLEV
modifications: left off: a dimerising Fc or GST
notes: first Ig domain of JAM2 synthesized as a secreted protein in insect cells
- adhesion to HSB cells (HSB cells; TBS and TBS+Mn, FIG. 10): capable of adhering to HSB cells
